In patent US20200270365A1 (JIANGSU HENGRUI MEDICINE, published 2020):

How the values were obtained:
[1] = target: T1, PCSK9 protein inserted with biotin receiving peptide BP15 and His-tag: PCSK9-BP15-His6 (human, UniProt Q8NBP7 153-692; A8T644 31-152, biotin on the BP15 biotin receiving peptide (labeled during the expression)); assay: ELISA, biotin PCSK9 on streptavidin plate
T1 construct: also called WT PCSK9; PCSK9 WT
Description: The binding ability of anti-PCSK9 antibodies of the present invention to PCSK9 protein (WT PCSK9, SEQ ID NO: 5) was detected by measuring the amounts of antibodies binding to PCSK9 immobilized on the ELISA plate.
(§1) Streptavidin (sigma, CAT #S4762) was diluted to 2 μg/ml with PBS and was added into a 96-well ELISA plate, at 4° C. for overnight. The plate was washed and then was blocked with Tris buffer (including 0.9 mM CaCl₂, 0.05% Tween 20 and 5% skim milk) at 37° C. for 2 hours. Then the plate was washed again and 100 μl/well of biotin-labeled PCSK9 (produced in-house, diluted with Tris buffer containing 0.9 mM CaCl₂, 0.05% Tween 20 and 1% skim milk) was added and incubated at 37° C. for 1 hour. After the wash step various concentrations of diluted PCSK9 antibody samples was added to the plate and incubated at 37° C. for 1 hour. […] Then the plate was washed and tetramethyl brenzidine solution was added for development. Finally, the stop buffer was added and the OD450 value was measured on the Microplate reader, and then EC50 was calculated.

[2] = target: T2, PCSK9 D374Y mutant protein inserted with biotin receiving peptide BP15 and His-tag: PCSK9-D374Y-BP15-His6 (human, UniProt Q8NBP7 153-692; A8T644 31-152, biotin on the BP15 biotin receiving peptide); assay: ELISA, biotin PCSK9-Y on streptavidin plate
T2 construct: also called PCSK9-Y; mutant PCSK9
Description: The binding ability of anti-PCSK9 antibodies of the present invention to PCSK9-Y protein (mutant PCSK9, SEQ ID NO: 6) was detected by measuring the amounts of antibodies binding to PCSK9-Y immobilized on the ELISA plate.
as §1, with “hours. The” for “hours. Then the”, “washed” for “washed again”, “biotin-labeled PCSK9-Y” for “biotin-labeled PCSK9”, “wash step,” for “wash step”, “samples were” for “samples was”

[3] = target: T1, PCSK9 protein inserted with biotin …; assay: competition ELISA, LDLR-FC coated, biotin PCSK9 + antibody
Description: The blocking ability of PCSK9 antibodies according to the present invention for the binding of LDLR-FC (produced in-house, with sequence of SEQ ID NO: 8) and PCSK9 (SEQ ID NO: 5) was tested by measuring the amount of PCSK9 binding to LDLR in the presence of the antibodies.
(§2) LDLR-FC was diluted to 5 μg/ml with phosphate buffer and was added into the 96-well ELISA plate, kept at 4° C. overnight. The plate was washed and then blocked with Tris buffer (including 0.9 mM CaCl₂, 0.05% Tween 20 and 5% skim milk) at 37° C. for 2 hours. Then the plate was washed and 100 μl/well of mixture of biotin-labeled PCSK9 (diluted to 2 μg/ml with Tris buffer containing 0.9 mM CaCl₂, 0.05% Tween 20 and 1% skim milk) and antibody samples (diluted with Tris buffer containing 0.9 mM CaCl₂, 0.05% Tween 20 and 1% skim milk) was added and incubated at 37° C. for 1 hour. Then the plate was washed again and horseradish peroxidase-streptavidin (sigma, CAT #S2438) was added and incubated at 37° C. for 1 hour. Then the plate was washed and tetramethyl brenzidine solution was added for development. Finally, the stop buffer was added and OD450 value was measured on the Microplate reader, then IC50 value was calculated.

[4] = target: T2, PCSK9 D374Y mutant protein inserted …; assay: competition ELISA, LDLR-FC coated, biotin PCSK9-Y + antibody
Description: The blocking ability of PCSK9 antibodies according to the present invention for the binding of LDLR-FC and PCSK9-Y (mutant PCSK9, SEQ ID NO: 6) was tested by measuring the amount of PCSK9-Y binding to LDLR in the presence of the antibodies.
as §2, with “LDLR-FC (produced in-house, with sequence of SEQ ID NO: 8)” for “LDLR-FC”, “to 2” for “to 5”, “plate,” for “plate, kept”, “biotin-labeled mutant” for “biotin-labeled”, “to 1” for “to 2”

Row | Binder | EC50 [1] [µg/mL] | EC50 [2] [µg/mL] | IC50 [3] [µg/mL] | IC50 [4] [µg/mL]
1 | h011-3133 (antibody, V domains shown) VH: QVQLVQSGAEVKKPGASVKVSCKASGYTFTGYEIHWVRQAPGQGLEWMGYINPSATYTKFNQKFKDRVTMTRDTSISTAYMELSRLRSDDTAVYYCARERIYSNYWFFDVWGQGTTVTVSS VL: DIVMTQSPSSLSASVGDRVTITCKASQNVYTAVAWYQQKPGKSPKLLIYSASNRYTGVPSRFSGSGSGTDFTLTISSLQPEDFATYFCQQYSSYPYTFGGGTKVEIK | 0.00435 | 0.00492 | 0.495 | 0.175
2 | h011-3174 (antibody, V domains shown) VH: QVQLVQSGAEVKKPGASVKVSCKASGYTFTGYTIHWVRQAPGQGLEWMGYINPSSTYTKFNQKFKDRVTMTRDTSISTAYMELSRLRSDDTAVYYCARERIFSNYWFFDVWGQGTTVTVSS VL: DIVMTQSPSSLSASVGDRVTITCKASQNVYTAVAWYQQKPGKSPKLLIYQASNRYTGVPSRFSGSGSGTDFTLTISSLQPEDFATYFCQQYSSYPYTFGGGTKVEIK | 0.00529 | 0.0112 | 1.67 | 0.23
3 | h011-3147 (antibody, V domains shown) VH: QVQLVQSGAEVKKPGASVKVSCKASGYTFTGYTIHWVRQAPGQGLEWMGEIIPSSTYTKFNQKFKDRVTMTRDTSISTAYMELSRLRSDDTAVYYCARERIYSNYWFFDVWGQGTTVTVSS VL: DIVMTQSPSSLSASVGDRVTITCKASQNVYTAVAWYQQKPGKSPKLLIYSASNRYTGVPSRFSGSGSGTDFTLTISSLQPEDFATYFCQQYSSYPYTFGGGTKVEIK | 0.00483 | 0.00668 | 0.567 | 0.173
4 | h011-3181 (antibody, V domains shown) VH: QVQLVQSGAEVKKPGASVKVSCKASGYTFTGYTIHWVRQAPGQGLEWMGYINPSSTYTKFNQKFKDRVTMTRDTSISTAYMELSRLRSDDTAVYYCARERIYSNYWFFDVWGQGTTVTVSS VL: DIVMTQSPSSLSASVGDRVTITCKASQNVYTAVAWYQQKPGKSPKLLIYSASNRYTGVPSRFSGSGSGTDFTLTISSLQPEDFATYFCQQLSSYPDTFGGGTKVEIK | 0.00221 | 0.00678 | 0.857 | 0.233
5 | h011-3187 (antibody, V domains shown) VH: QVQLVQSGAEVKKPGASVKVSCKASGYTFTGYTIHWVRQAPGQGLEWMGYINPSSTYTKFNQKFKDRVTMTRDTSISTAYMELSRLRSDDTAVYYCARERIYSNYWFFDVWGQGTTVTVSS VL: DIVMTQSPSSLSASVGDRVTITCKASQNVYTAVAWYQQKPGKSPKLLIYSASNRYTGVPSRFSGSGSGTDFTLTISSLQPEDFATYFCQQLSSSPETFGGGTKVEIK | 0.0045 | 0.00704 | 0.666 | 0.156

Further lines, results first:

Row | EC50 [1] [µg/mL] | EC50 [2] [µg/mL] | IC50 [3] [µg/mL] | IC50 [4] [µg/mL] | Binder
6 | 0.00664 | 0.127 | 0.698 | 2.36 | h011-3192 (antibody, V domains shown) VH: QVQLVQSGAEVKKPGASVKVSCKASGYTFTGYTIHWVRQAPGQGLEWMGYINPSSTYTKFNQKFKDRVTMTRDTSISTAYMELSRLRSDDTAVYYCARERIYSNYWFFDVWGQGTTVTVSS VL: DIVMTQSPSSLSASVGDRVTITCKASQNVYTEVAWYQQKPGKSPKLLIYSASNRYTGVPSRFSGSGSGTDFTLTISSLQPEDFATYFCQQYSSYPYTFGGGTKVEIK
7 | 0.00679 | 0.0218 | 2.25 | 0.689 | h011-3195 (antibody, V domains shown) VH: QVQLVQSGAEVKKPGASVKVSCKASGYTFTGYTIHWVRQAPGQGLEWMGYINPSSTYTKFNQKFKDRVTMTRDTSISTAYMELSRLRSDDTAVYYCARERIFSNYWFFDVWGQGTTVTVSS VL: DIVMTQSPSSLSASVGDRVTITCKASQNVYTAVAWYQQKPGKSPKLLIYSASNRYTGVPSRFSGSGSGTDFTLTISSLQPEDFATYFCQQYSSYPYTFGGGTKVEIK
8 | 0.005 | 0.00478 | 0.837 | 0.222 | h011-3190 (antibody, V domains shown) VH: QVQLVQSGAEVKKPGASVKVSCKASGYTFTGYTIHWVRQAPGQGLEWMGEINPSSTYTKFNQKFKDRVTMTRDTSISTAYMELSRLRSDDTAVYYCARERIYSNYWFFDVWGQGTTVTVSS VL: DIVMTQSPSSLSASVGDRVTITCKASQNVYTAVAWYQQKPGKSPKLLIYSASNRYTGVPSRFSGSGSGTDFTLTISSLQPEDFATYFCQQYSSYPYTFGGGTKVEIK
9 | 0.00469 | 0.0169 | 0.628 | 0.579 | h011-3194 (antibody, V domains shown) VH: QVQLVQSGAEVKKPGASVKVSCKASGYTFTGYTIHWVRQAPGQGLEWMGYINPSSTYTKFNQKFKDRVTMTRDTSISTAYMELSRLRSDDTAVYYCARERIYSNYWFFDVWGQGTTVTVSS VL: DIVMTQSPSSLSASVGDRVTITCKASQNVYTAVAWYQQKPGKSPKLLIYSASNRYTGVPSRFSGSGSGTDFTLTISSLQPEDFATYFCQQLSSYPYTFGGGTKVEIK
10 | 0.00631 | 0.0066 | 0.74 | 0.226 | h011-3191 (antibody, V domains shown) VH: QVQLVQSGAEVKKPGASVKVSCKASGYTFTGYTIHWVRQAPGQGLEWMGYIVPSSTYTKFNQKFKDRVTMTRDTSISTAYMELSRLRSDDTAVYYCARERIYSNYWFFDVWGQGTTVTVSS VL: DIVMTQSPSSLSASVGDRVTITCKASQNVYTAVAWYQQKPGKSPKLLIYSASNRYTGVPSRFSGSGSGTDFTLTISSLQPEDFATYFCQQYSSYPYTFGGGTKVEIK
11 | 0.0047 | 0.0221 | 0.621 | 0.871 | h011-3193 (antibody, V domains shown) VH: QVQLVQSGAEVKKPGASVKVSCKASGYTFTGYTIHWVRQAPGQGLEWMGYINPSSTYTKFNQKFKDRVTMTRDTSISTAYMELSRLRSDDTAVYYCARERIYSNYWFFDVWGQGTTVTVSS VL: DIVMTQSPSSLSASVGDRVTITCKASQNVYTAVDWYQQKPGKSPKLLIYSASNRYTGVPSRFSGSGSGTDFTLTISSLQPEDFATYFCQQYSSYPYTFGGGTKVEIK
